Laboratory results from the supplement of paper PMC7877785.
± gives the uncertainty stated by the source.

Test: self-splicing fitness, log relative to wild type (ln ratio); higher = more splicing; Tetrahymena group I intron in knt gene, E. coli kanamycin selection, DiMSum; sequences stand for … in CUCUCU…GGAGGGAAAAGUUAUCAGGCAUGCACCUGGUAGCUAGUCUUUAAACCAAUAGAUUGCAUCGGUUUAAAAGGCAAGACCGUCAAAUUGCGGGAAAGGGGUCAACAGCCGUUCAGUACCAAGUCUCAGGGGAAACUUUGAGAUGGCCUUGCAAAGGGUAUGGUAAUAAGCUGACGGACAUGGUCCUAACCACGCAGCCAAGUCCUAAGUCAACAGAUCUUCUGUUGAUAUGGAUGCAGUUCACAGACUAAAUGUCGGUCGGGGAAGAUGUAUUCUUCUCAUAAGAUAUAGUCGGACCUCUCCUUAAUGGGAGCUAGCGGAUGAAGUGAUGCAACACUGGAGCCGCUGGGAACUAAUUUGUAUGCGAAAGUAUAUUGAUUAGUUUUGGAGUACUCGUGGUCG
How it was run: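 Pooled colonies went to amplicon sequencing on an Illumina HiSeq 2500 after six replicate transformations. The plates were LB agar with 100 μg/mL carbenicillin, 50 μM IPTG and 0.2% rhamnose, with or without 25 μg/mL kanamycin, incubated overnight at 37°C or 30°C. The E. coli BL21(DE3) library had all eight P1ex-region intron nucleotides randomised, the intron placed in the knt kanamycin-resistance gene on pET-22b(+). DiMSum fitness is the error-weighted combination of replicate fold changes, kanamycin against none, normalised to wild type.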

| Sequence | self-splicing fitness (ln) (30 °C) | self-splicing fitness (ln) (37 °C) |
| --- | --- | --- |
| CCGUAGCAAUAUUACGGGCG | -2.81 ± 0.17 | -1.34 ± 0.14 |
| CCGUAGCAAUAUUACGGGGG | -4.09 ± 0.24 | -3.23 ± 0.26 |
| CCGUAGCAAUAUUACGGGUU | -3.9 ± 0.17 | -1.57 ± 0.16 |
| CCGUAGCAAUAUUACGUAGU | -3.13 ± 0.19 | -3.05 ± 0.33 |
| CCGUAGCAAUAUUACGUCCU | -3 ± 0.24 | -2.62 ± 0.3 |
| CCGUAGCAAUAUUACGUUAU | -2.06 ± 0.12 | -2.35 ± 0.23 |
| CCGUAGCAAUAUUACGUUCC | -3.11 ± 0.47 | – |
| CCGUAGCAAUAUUACGUUUC | -3.05 ± 0.16 | -3.47 ± 0.29 |
| CCUAAGCAAUAUUACGAACG | -1.68 ± 0.13 | -0.478 ± 0.14 |
| CCUAAGCAAUAUUACGACCU | -3.17 ± 0.35 | -2.34 ± 0.31 |
| CCUAAGCAAUAUUACGAGCU | -2.2 ± 0.33 | -1.93 ± 0.27 |
| CCUAAGCAAUAUUACGAUGG | -2.4 ± 0.16 | -2.09 ± 0.17 |
| CCUAAGCAAUAUUACGCCGA | -0.993 ± 0.49 | -1.98 ± 0.37 |
| CCUAAGCAAUAUUACGCGCU | -2.38 ± 0.22 | -2.75 ± 0.3 |
| CCUAAGCAAUAUUACGCUCA | -3.32 ± 0.27 | -3.18 ± 0.4 |
| CCUAAGCAAUAUUACGGACU | -3.46 ± 0.35 | -2.29 ± 0.36 |
| CCUAAGCAAUAUUACGGCCC | -2.37 ± 0.29 | – |
| CCUAAGCAAUAUUACGGGAG | -4.51 ± 0.24 | -2.93 ± 0.21 |
| CCUAAGCAAUAUUACGGGGC | -2.45 ± 0.2 | -2.61 ± 0.22 |
| CCUAAGCAAUAUUACGGUAC | -2.81 ± 0.22 | -2.17 ± 0.34 |
| CCUAAGCAAUAUUACGUAAU | -2.38 ± 0.18 | -0.984 ± 0.29 |

| Sequence | self-splicing fitness (ln) (30 °C) | self-splicing fitness (ln) (37 °C) |
| --- | --- | --- |
| CCUAAGCAAUAUUACGUACC | -4.63 ± 0.46 | -2.75 ± 0.31 |
| CCUAAGCAAUAUUACGUACG | -1.94 ± 0.13 | -0.851 ± 0.13 |
| CCUAAGCAAUAUUACGUACU | -3.76 ± 0.43 | -3.01 ± 0.29 |
| CCUAAGCAAUAUUACGUAUU | -4.79 ± 0.39 | -3.07 ± 0.2 |
| CCUAAGCAAUAUUACGUCAU | -4.09 ± 0.22 | -2.83 ± 0.22 |
| CCUAAGCAAUAUUACGUCGG | -2.3 ± 0.29 | -1.51 ± 0.24 |
| CCUAAGCAAUAUUACGUCGU | -3.14 ± 0.39 | -2.08 ± 0.19 |
| CCUAAGCAAUAUUACGUCUC | -3.01 ± 0.11 | -3.11 ± 0.19 |
| CCUAAGCAAUAUUACGUCUG | -2.15 ± 0.2 | -2 ± 0.24 |
| CCUAAGCAAUAUUACGUGAG | -1.2 ± 0.057 | -0.711 ± 0.076 |
| CCUAAGCAAUAUUACGUUAU | -3.35 ± 0.17 | -2.85 ± 0.24 |
| CCUAAGCAAUAUUACGUUGC | -3.6 ± 0.24 | -3.42 ± 0.34 |
| CCUAAGCAAUAUUACGUUUC | -2.52 ± 0.2 | -2.97 ± 0.27 |
| CCUCAGCAAUAUUACGACGA | -4.04 ± 0.33 | -2.86 ± 0.3 |
| CCUCAGCAAUAUUACGAGUA | -3.06 ± 0.21 | -2.38 ± 0.21 |
| CCUCAGCAAUAUUACGAUCC | -2.43 ± 0.44 | – |
| CCUCAGCAAUAUUACGAUCU | -3.75 ± 0.27 | -2.79 ± 0.23 |
| CCUCAGCAAUAUUACGCCAA | -2.26 ± 0.23 | – |
| CCUCAGCAAUAUUACGCCGA | -3.12 ± 0.24 | -3.48 ± 0.27 |
| CCUCAGCAAUAUUACGCUUA | -4.1 ± 0.3 | -2.11 ± 0.16 |
| CCUCAGCAAUAUUACGCUUC | -3.45 ± 0.39 | -3.01 ± 0.33 |

| Sequence | self-splicing fitness (ln) (30 °C) | self-splicing fitness (ln) (37 °C) |
| --- | --- | --- |
| CCUCAGCAAUAUUACGCUUU | -3.07 ± 0.14 | -2.79 ± 0.21 |
| CCUCAGCAAUAUUACGGAGU | -2.26 ± 0.089 | -1.03 ± 0.09 |
| CCUCAGCAAUAUUACGGCAG | -2.91 ± 0.18 | -1.15 ± 0.13 |
| CCUCAGCAAUAUUACGGCGC | -3.57 ± 0.2 | -2.45 ± 0.3 |
| CCUCAGCAAUAUUACGGCGU | -3.42 ± 0.21 | -2.64 ± 0.27 |
| CCUCAGCAAUAUUACGGGAG | -3.4 ± 0.14 | -2.42 ± 0.15 |
| CCUCAGCAAUAUUACGGGAU | -4.21 ± 0.2 | -2.55 ± 0.17 |
| CCUCAGCAAUAUUACGGGCC | -4.31 ± 0.3 | -2.77 ± 0.36 |
| CCUCAGCAAUAUUACGGGCU | -2.67 ± 0.18 | -2.57 ± 0.25 |
| CCUCAGCAAUAUUACGGGUG | -2.04 ± 0.06 | -0.955 ± 0.07 |
| CCUCAGCAAUAUUACGUGGU | -3.93 ± 0.11 | -2.5 ± 0.13 |
| CCUCAGCAAUAUUACGUGUU | -4.12 ± 0.2 | -3.41 ± 0.25 |
| CCUCAGCAAUAUUACGUUAU | -3.74 ± 0.17 | -2.49 ± 0.17 |
| CCUCAGCAAUAUUACGUUCG | -2.69 ± 0.077 | -0.795 ± 0.075 |
| CCUGAGCAAUAUUACGAAUU | -2.96 ± 0.2 | -2.15 ± 0.31 |
| CCUGAGCAAUAUUACGAUGC | -4.16 ± 0.28 | -2.75 ± 0.21 |
| CCUGAGCAAUAUUACGCACC | – | -1.74 ± 0.4 |
| CCUGAGCAAUAUUACGCCCU | – | -1.73 ± 0.33 |
| CCUGAGCAAUAUUACGGAAC | -2.63 ± 0.33 | -1.66 ± 0.31 |
| CCUGAGCAAUAUUACGGACA | -3.69 ± 0.28 | -1.64 ± 0.18 |
